In US20050059087A1, “Antibodies directed to the deletion mutants of epidermal growth factor receptor and uses thereof” (priority 2003, published 2005):
Positions count from the first letter of the chain named.

Columns and labels:
[1] = target: T1, A431 cells (wild type EGFR) (Homo sapiens, UniProt P00533); test: FACS staining of A431 cells; format: cell-based
T1 construct: host or cells: A431
Procedure: (§1) The specificity of the purified antibodies was ascertained by performing FACS analysis on a panel of cell lines. H80, a human glioblastoma line, and H1477 (H80-EGFRvIII) that expresses high levels of EGFRvIII, A431, a human epidemoid carcinoma line, and A549, a human lung carcinoma cell line were used as the cell lines. All cell lines were from Dr. Bigner except A431 and A549, which were from ATCC (Rockville, Md., U.S.A.). Cells were incubated on ice with 10 μg/ml of the respective antibody for 30 min., washed in FACS buffer and subsequently incubated with PE-conjugated goat anti-human IgG from Jackson ImmunoResearch (West Grove, Pa., U.S.A.). In FIGS. 9A-9L and 10A-10D, the darkened histogram indicates cells stained with an irrelevant IgG, the outlined, or white histogram, represents the staining of the relevant antibodies.

[2] = target: T2, Pep-3 (EGFRvIII epitope) (Homo sapiens, UniProt P00533, DELINS30-297G); test: Biacore (surface plasmon resonance) binding kinetics to Pep-3; conditions: for Ka / dissociation rate constant (kd, koff): parentheses 95% confidence interval
T2 construct: purchased Anatech, Inc. (San Jose, Calif.); host or cells: custom synthesis
Procedure: All antigen and mAb samples for Biacore and KinExA analysis were prepared in vacuum-degassed HBS-P buffer (0.01 M HEPES, 0.15 M NaCl, 0.005% surfactant P-20, Biacore Inc., Uppsala, Sweden) containing 100 μg/mL BSA. […] Research grade CM5 biosensor chips were purchased from Biacore, Inc.
Standard EDC/NHS and carbohydrate coupling was used to covalently immobilize mAbs to a CM5 sensor chip. To minimize mass transport and crowding mAbs were immobilized at levels that gave a maximum antigen binding response (Rmax) of no more than 50-100 RU. A reference flow cell on each chip was activated and blocked with no mAb immobilization to serve as a control.
All Biacore kinetic experiments were conducted at 23° C. […] Antigen samples were randomly injected over the biosensor surface in triplicate at 100 μL/min. Several buffer blanks were injected intermittently over the course of an experiment for double referencing. Each pep-3 concentration and blank were injected for 90 seconds. Dissociation was followed for 13 to 180 minutes.
All Biacore sensorgrams were processed using Scrubber software (Version 1.1f, BioLogic Software, Australia). Sensorgrams were first zeroed on the y-axis and then x-aligned at the beginning of the injection. Bulk refractive index changes were removed by subtracting the reference flow cell responses. The average response of all blank injections was subtracted from all analyte and blank sensorgrams to remove systematic artifacts between the experimental and reference flow cells. CLAMP biosensor data analysis software (Version 3.40, BioLogic Software, Australia) was used to determine ka and kd from the processed data sets. Data from all flow cells were globally fit to a 1:1 bimolecular binding model that included a mass transport term. […] The KD was calculated from the quotient kd/ka.
Two CM5 sensor chips were used in total to immobilize both mAbs. […] Biacore 2000 optical biosensors were used for all studies.
Next, pep-3 was flowed across the mAb immobilized biosensor surfaces. The starting concentration of pep-3 was 1.25 μM, which was followed with eight two-fold serial dilutions in randomized triplicate injections. Blank injections were run every sixth sample throughout the injection series for double referencing purposes.
Finally, the biosensor data was processed with Scrubber and the data was fit to curves utilizing Clamp with a 1:1 interaction model with a term included for mass transport. […]

[3] = target: T3, A549 cells (wild type EGFR) (Homo sapiens, UniProt P00533); test: FACS staining of A549 cells; format: cell-based
T3 construct: host or cells: A549
Procedure: as §1

[4] = target: T4, H1477 (H80-EGFRvIII) cells (Homo sapiens, UniProt P00533, DELINS30-297G); test: FACS staining of H1477 (H80-EGFRvIII) cells; format: cell-based
T4 construct: host or cells: H1477 (H80 human glioblastoma line transfected with EGFRvIII)
Procedure: as §1

[5] = target: T5, EGFrVIII peptide sequence (residues 1-20) (Homo sapiens, UniProt P00533, DELINS30-297G); test: Epitope mapping by SPOTs peptide array and Alanine scanning; format: binding; conditions: SEQ ID 94/98 = EEKKGNYVVT; 95 = LEEKKGNYVVTD; 96 = YVVTDH; 97 = YVVTD; 99 = GNYVVT
T5 construct: purchased Sigma-Genosys (custom SPOTs array)
Text: The approach that was used was a custom SPOTs peptide array (Sigma Genosys) to study the molecular interaction of the human anti-EGFrVIII antibodies with their peptide epitope. SPOTs technology is based on the solid-phase synthesis of peptides in a format suitable for the systematic analysis of antibody epitopes. Synthesis of custom arrayed oligopeptides is commerically available from Sigma-Genosys. A peptide array of overlapping oligopeptides derived from the amino-acid sequence of the EGFr VIII variant was ordered from Sigma-Genosys.
A series of nine 12-mer peptides were synthesized as spots on polypropylene membrane sheets. The peptide array spanned residues 1-20 of the EGFrVIII sequence, representing the deletion of amino acids 6-273 in the extracellular domain of wtEGFr, and the generation of a glycine (G) residue at the junction point. Each consecutive peptide was offset by 1 residue from the previous one, yielding a nested, overlapping library of arrayed oligopeptides. The membrane carrying the 9 peptides was reacted with 9 different anti EGFrVIII antibodies (1 μg/ml). The binding of the mAbs to the membrane-bound peptides was assessed by an enzyme-linked immunosorbent assay using HRP-conjugated secondary antibody followed by enhanced chemiluminescence (ECL).
In addition, functional epitopes were mapped by combinatorial Alanine scanning. In this process, a combinatorial Alanine-scanning strategy was used to identify amino acids in the EGFrVIII peptide necessary for interaction with anti-EGFRvIII mAbs. To accomplish this, a second set of SPOTs arrays was ordered for Alanine scanning. A panel of variants peptides with alanine substitutions in each of the 12 residues was scanned as above. Spot #1, the unmutated sequence, is a positive control for antibody binding.

[6] = target: purified wild-type EGFR protein (Homo sapiens, UniProt P00533); test: Western blot, purified wild-type EGFR protein; format: binding
Procedure: (§2) Specifcially, a subset of the antibodies were tested for their binding of to lysates of tumor cell lines in Western plates of polyacrylamide gel electrophoresis under either non-reducing or reducing conditions. Purifed recombinant protein is also included. […] Sample identifications: • EGFRvIII—the rabbit Fc fusion protein • H1477—H80 human tumor cell line transfected with EGFRvIII expression contruct. These cells express both EGFR and EGFRvIII. • EGFR—purified wild-type EGFR protein • A431—human tumor cell line expressing only wild-type EGFR • A549—human tumor cell line expressing only wild-type EGFR • H80—human tumor cell line expressing only wild-type EGFR

[7] = target: T6, EGFRvIII rabbit Fc fusion protein (Homo sapiens, UniProt P00533, DELINS30-297G); test: Western blot, purified EGFRvIII rabbit Fc fusion protein, reducing / non-reducing; format: binding; conditions: native and reduced
T6 construct: fragment encoding the extracellular domain of EGFRvIII was generated; made in house; host or cells: 293F cells
Procedure: as §2

[8] = target: T7, A431 lysate (wild-type EGFR) (Homo sapiens, UniProt P00533); test: Western blot, A431 lysate; format: binding
T7 construct: host or cells: A431
Procedure: as §2

[9] = target: T8, EGFRvIII receptor on NR6 M cells (Homo sapiens, UniProt P00533, DELINS30-297G); test: Internalization assay of B-cell culture supernatants (FMAT, glutathione); format: cell-based
T8 construct: expressed in transfected cells; host or cells: NR6 murine fibroblasts (NR6 M)
Procedure: The top 60 native binding B cell culture supernatants were further assayed for their ability to internalize the receptor. NR6 M cells were seeded at 8000 cells/well into 96 well FMAT plates and incubated overnight. Media was removed and 10-15 μl B-Cell culture supernatant in a total volume of 30 μl media, in duplicate was added. Next, 15 μl of secondary antibody (SS Alexa 647 anti-human IgG Fab at 1.5 μg/ml final concentration) was added and the mixture was incubated on ice for 1 hr. An irrelevant B-Cell Culture supernatant was used to see the effect of the culture media. Human anti-EGFRvIII mAb 13.2.1 was used as a positive control starting at 1 μg/ml (final concentration) and negative control was PK 16.3.1 (human anti-KLH IgG2 antibody) at the same concentration. After incubation, the cells were washed with cold PBS, 50 μl media was added to all of the wells, one of the duplicates were incubated at 37° C. for 30 mins while the other duplicate remained on ice. After the incubations media was removed, 100 ul of cold 50 mM glutathione was added to the set incubated at 37° C. and 100 μl of cold media added to the other set, both sets were then left on ice for 1 hr. The cells were then washed with 100 μl cold PBS and then fixed with 1% paraformaldehyde and read in FMAT. The results were expressed as % intermalized, calculated as total fluorescence in the presence of glutathione/total fluorescence in the absence of glutathione X 100.

B1: 139: XenoMax derived human anti-EGFRvIII IgG1, from well 182A5 (antibody, V domains shown)
VH: EVQVLESGGGLVQPGGSLRLSCAASGFTFSSYAMSWVRQAPGKGLEWVSAISGSGGSTNYADSVKGRFTISRDNSKNTLYLQMNSLRAEDTAVYYCAGSSGWSEYWGQGTLVTVSS
VL: DIQMTQSPSSLSASVGDRVTITCRASQGIRNNLAWYQQKPGKAPKRLIYAASNLQSGVPSRFTGSGSGTEFTLIVSSLQPEDFATYYCLQHHSYPLTSGGGTKVEIK
- Binding / staining of A431 cells in FACS [1]: stained
- kd ([2]; curve fitting): 2.981*10^−3
- Ka [2]: 10300 M⁻¹ s⁻¹
- dissociation rate constant (kd, koff) [2]: 0.00298 s⁻¹
- Binding / staining of A549 cells in FACS [3]: stained
- Binding to the EGFRvIII protein on the transfected cell lines ([4]; 10 μg/ml): bind
- Selectivity for EGFRvIII expressing cells (H1477) as compared to ABX-EGF ([4]; FIGS. 9A-9L, 10A-10D): superior selectivity
- Epitope mapped by SPOTs [5]: (SEQ ID NO: 95)

B2: 250: XenoMax derived human anti-EGFRvIII antibody, from well 138D2 (antibody, V domains shown)
VH: B1 VH with V2G, V4L, L11W, G16E, M83V, A88V
VL: DIQMTQSPSSLSASVGDSVTITCRTSQGIRKNLGWYQQKPGKAPKRLIYAASSLQSGVPSRFSGSGSGTEFTLTISRLQPEDFATYYCLQHHSYPLTFGGGTRVEIR
- Epitope mapped by SPOTs [5]: (SEQ ID NO: 95)

B3: 211: XenoMax derived human anti-EGFRvIII antibody, from well 190D7 (antibody, V domains shown)
VH: QVQLVESGGGVVQPGRSLRLSCVASGFTLSSYGMHWVRQAPGKGLEWVAVTSYDGSKKDYADSAKGRFTISRDNSKNTLYLQMNSLRAEDTAVYYCVSEGYCSSSSCYKYYYYGMDVWGQGTTVTVSS
VL: DIVMTQSPLSLPVTPGEPASISCRSSQSLLYRNGNNYLDWYLQRPGQSPQLLIYLGSNRASGVPDRFSGSGSGTDFTLKISRVEAEDVGVYYCMQALQTPRTFGQGTKVEIK
- Binding to purified wildtype EGFr in Western blots [6]: cross reacted
- Binding to purified EGFRvIII in Western blots [7]: binds to both native and reduced
- Binding in Western blot of A431 lysate, reduced sample [8]: no signal
- Binding in Western blot of lysate of A431 cells [8]: cross reacted
- Binding in Western blot of A431 lysate, non-reduced sample ([8]; band of the size of wild-type EGFR): binds strongly
- Epitope mapped by SPOTs [5]: (SEQ ID NO: 97)

B4: 125 D10: B-cell culture supernatant well (antibody, V domains shown)
VH: QVQLQQSGPGLVKPSQTLSLTCAISGDSVSSNNAAWNWIRQSPARGLEWLGRTYYRSKWYNDYVVSVKSRITINPDTSKNQFSLQLNSVTPEDTAVYYCVRATAFDYWGQGTLVTVSS
VL: AIVLTQTPLSSPVTLGQPASISCRSSQSLVHRDGNTYLSWLQQRPGQPPRLLIYKISNRFSGVPDRFSGSGAGTDFTLKISRVEPDDVGVYYCMHTTQLPWTFGQGTKVEIK
- With glutathione FL1 × count ([9]; 37° C. for 30 mins, then 50 mM glutathione): 1236
- % internalized, (glut+/glut−) × 100 ([9]; NR6 M cells, 37° C. 30 mins): 52.8%
- No glutathione FL1 × count ([9]; set kept on ice, no glutathione): 2342

B5: 095: XenoMax derived human anti-EGFRvIII antibody (antibody, V domains shown)
VH: QVQLQESGPFLVKPSQTLSLTCTVSGGSISSGGYYWSWIRQHPGKGLEWIGFIYYRGNTYYNPSLKSRVTISVDTSKNQFSLKLSSVTAADTAVYYCARDGYCSRTGCYGGWFDPWGQGTLVTVSP
VL: DIVMTQTPLSSPVTLGQPASISCRSSQSLIHTDGNIYLSWLQQRPGQPPRLLIYKISNRFSGVPDRFSGSGAGTDFTLKISRVEAEDVGVYYCMQGTQFPITFGQGTRLEIK
- ka ([2]; curve fitting): 1.491*10^5
- kd ([2]; curve fitting): 9.927*10^−3
- Ka [2]: 149000 M⁻¹ s⁻¹
- dissociation rate constant (kd, koff) [2]: 0.0099 s⁻¹
- Epitope mapped by SPOTs [5]: (SEQ ID NO: 96)
